From PMC2776994 (2009)

T1: PcrA helicase (UniProt P56255 1-724)
T1 sequence: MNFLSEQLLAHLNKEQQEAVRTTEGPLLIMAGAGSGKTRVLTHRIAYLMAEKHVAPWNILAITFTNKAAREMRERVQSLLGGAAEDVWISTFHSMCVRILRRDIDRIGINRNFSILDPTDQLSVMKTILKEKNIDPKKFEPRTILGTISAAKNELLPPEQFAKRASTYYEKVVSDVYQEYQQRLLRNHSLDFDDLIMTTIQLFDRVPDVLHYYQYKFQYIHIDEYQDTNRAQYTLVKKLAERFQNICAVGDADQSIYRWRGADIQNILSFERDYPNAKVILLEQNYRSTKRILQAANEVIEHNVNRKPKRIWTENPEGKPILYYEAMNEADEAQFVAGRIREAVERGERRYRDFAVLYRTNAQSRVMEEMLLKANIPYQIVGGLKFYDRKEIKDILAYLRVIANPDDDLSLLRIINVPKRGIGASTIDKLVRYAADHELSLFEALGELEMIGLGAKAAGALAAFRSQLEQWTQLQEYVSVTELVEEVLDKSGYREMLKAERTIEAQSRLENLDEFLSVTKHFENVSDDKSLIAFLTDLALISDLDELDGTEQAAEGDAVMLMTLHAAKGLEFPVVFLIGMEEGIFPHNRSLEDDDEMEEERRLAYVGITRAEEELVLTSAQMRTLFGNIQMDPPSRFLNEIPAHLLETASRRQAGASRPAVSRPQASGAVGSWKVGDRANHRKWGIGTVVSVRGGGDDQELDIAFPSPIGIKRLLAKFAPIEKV

T2: RepD (Staphylococcus aureus, UniProt P03065)
T2 chain: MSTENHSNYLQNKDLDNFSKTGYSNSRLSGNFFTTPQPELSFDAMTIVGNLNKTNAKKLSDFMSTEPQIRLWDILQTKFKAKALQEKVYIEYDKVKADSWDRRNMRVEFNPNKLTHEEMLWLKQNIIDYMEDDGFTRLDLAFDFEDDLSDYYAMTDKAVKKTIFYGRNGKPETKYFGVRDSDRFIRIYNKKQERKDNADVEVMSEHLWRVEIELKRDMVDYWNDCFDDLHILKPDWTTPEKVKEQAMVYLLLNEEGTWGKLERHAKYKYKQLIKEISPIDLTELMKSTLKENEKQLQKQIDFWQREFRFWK

B1: PcrA (protein)
chain: T1 sequence
modifications: DNA junction

How the values were obtained:
PcrA helicase = target: T1, PcrA helicase; experiment: not stated in material
RepD = target: T2, RepD; experiment: fluorescence anisotropy

Row | Binder | Kd (PcrA helicase) [nM] | Kd (RepD) [nM]
1 | TTTTTTTTTT (ssDNA) [dT10] | 240 | 
2 | B1 |  | 22
